According to article PMC12098869, “An mRNA-display derived cyclic peptide scaffold reveals the substrate binding interactions of an N-terminal cysteine oxidase” (Nature Communications, 2025):
Positions count from the first letter of the chain named. Values belong to the binder of their own block, whether it stands above or below them.

Tests used:
Assay in all cases: SPR; multi-cycle, equilibrium steady state affinity 1:1 binding model; biotinylated ADO or variant immobilised on a Biotin CAP chip (~2500-3000 RU), peptide injected; 4 °C; 20 mM HEPES pH 7.5, 500 mM NaCl, 10 mM DTT, 0.1% (v/v) tween-20; 50 μL/minute
Conditions in all cases: both partners purified
[1] = target: T1, ADO-Y87A, biotinylated (pQE80L-Navi-ADO) (human, UniProt Q96SZ5 1-270, Y87A, biotin on the Avi tag)
T1 construct: Tag as in Dm1; source: E. coli Rosetta2(DE3), purified (Ni-NTA, SEC); not shown: Avi tag, N-terminal, kept; His6, N-terminal, kept
T1 sequence (looked up): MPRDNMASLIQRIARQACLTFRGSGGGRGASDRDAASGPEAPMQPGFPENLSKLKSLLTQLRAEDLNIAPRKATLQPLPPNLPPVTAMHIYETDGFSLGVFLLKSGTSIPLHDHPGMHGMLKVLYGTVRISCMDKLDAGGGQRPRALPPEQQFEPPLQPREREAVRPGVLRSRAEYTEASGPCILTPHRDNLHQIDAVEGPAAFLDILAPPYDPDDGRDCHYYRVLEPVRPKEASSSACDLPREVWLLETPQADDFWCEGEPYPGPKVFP
Summary of the method: (§1)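 Biotinylated full-length human ADO (wild type or engineered forms) was made in E. coli with a His tag, then purified by nickel affinity and gel filtration. It was captured on a Biotin CAP chip at about 2500–3000 RU in a Biacore T200, and peptides were flowed over it. The run was at 4 °C in HEPES pH 7.5 buffer with 500 mM NaCl, DTT and tween-20, at 50 μL/minute. Kd came from a 1:1 steady-state fit of multi-cycle equilibrium responses.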

[2] = target: T2, ADO-C220A, biotinylated (pQE80L-Navi-ADO) (human, UniProt Q96SZ5 1-270, C220A, biotin on the Avi tag)
T2 construct: Tag as in Dm1; source: E. coli Rosetta2(DE3), purified (Ni-NTA, SEC); not shown: Avi tag, N-terminal, kept; His6, N-terminal, kept
T2 sequence (looked up): T1 sequence (looked up) with A87Y, C220A
Summary of the method: as §1

[3] = target: T3, ADO-Y212F, biotinylated (pQE80L-Navi-ADO) (human, UniProt Q96SZ5 1-270, Y212F, biotin on the Avi tag)
T3 construct: Tag as in Dm1; source: E. coli Rosetta2(DE3), purified (Ni-NTA, SEC); not shown: Avi tag, N-terminal, kept; His6, N-terminal, kept
T3 sequence (looked up): T1 sequence (looked up) with A87Y, Y212F
Summary of the method: as §1

[4] = target: T4, ADO-Y222A, biotinylated (pQE80L-Navi-ADO) (human, UniProt Q96SZ5 1-270, Y222A, biotin on the Avi tag)
T4 construct: Tag as in Dm1; source: E. coli Rosetta2(DE3), purified (Ni-NTA, SEC); not shown: Avi tag, N-terminal, kept; His6, N-terminal, kept
T4 sequence (looked up): T1 sequence (looked up) with A87Y, Y222A
Summary of the method: as §1

[5] = target: T5, ADO-Y212A, biotinylated (pQE80L-Navi-ADO) (human, UniProt Q96SZ5 1-270, Y212A, biotin on the Avi tag)
T5 construct: Tag as in Dm1; source: E. coli Rosetta2(DE3), purified (Ni-NTA, SEC); not shown: Avi tag, N-terminal, kept; His6, N-terminal, kept
T5 sequence (looked up): T1 sequence (looked up) with A87Y, Y212A
Summary of the method: as §1

Kd [1]: 1.7 µM
Kd [2]: 1.1 µM
Kd [3]: 24 µM
Kd [4]: 4.7 µM
Kd [5]: 72 µM
B1: RGS5_(2-15), synthetic peptide corresponding to the methionine excised N-terminus of RGS5, residues 2 to 15 (peptide, UniProt O15539 2-15, looked up)
peptide: CKGLAALPHSCLER
notes: Regulator of G-protein signalling 5 (RGS5), residues 2 to 15, N-terminal Cys; also called RGS5 peptide; source: synthetic peptide

Kd [1]: 4.2 µM
Kd [2]: 1.3 µM
Kd [3]: 9.2 µM
Kd [4]: 1 µM
Kd [5]: 29 µM
B2: IL32_(2-15), synthetic peptide corresponding to the methionine excised N-terminus of IL32, residues 2-15 (peptide, UniProt P24001 2-15, looked up)
peptide: CFPKVLSDDMKKLK
notes: Interleukin 32 (IL32), residues 2-15, N-terminal Cys; also called IL32 peptide; source: synthetic peptide
